Target: epidermal growth factor receptor (EGFR)

B1: protein-tyrosine phosphatase 1b (PTP1b) (protein)
chain: MEMEKEFEQIDKSGSWAAIYQDIRHEASDFPCRVAKLPKNKNRNRYRDVSPFDHSRIKLHQEDNDYINASLIKMEEAQRSYILTQGPLPNTCGHFWEMVWEQKSRGVVMLNRVMEKGSLKCAQYWPQKEEKEMIFEDTNLKLTLISEDIKSYYTVRQLELENLTTQETREILHFHYTTWPDFGVPESPASFLNFLFKVRESGSLSPEHGPVVVHCSAGIGRSGTFCLADTCLLLMDKRKDPSSVDIKKVLLEMRKFRMGLIQTADQLRFSYLAVIEGAKFIMGDSSVQDQWKELSHEDLEPPPEHIPPPPRPPKRILEPHNGKCREFFPNHQWVKEETQEDKDCPIKEEKGSPLNAAPYGIESMSQDTEVRSRVVGGSLRGAQAASPAKGEPSLPEKDEDHALSYWKPFLVNMCVATVLTAGAYLCYRFLFNSNT
- EGFR Y1173 phosphorylation (semi-quantitative Western blot): inhibition of PTP1b increased EGFR Y1173 phosphorylation in GFP control cells treated with 0.25 nM EGF
